Reference: a protein production outcome set (Wang et al. 2014)

Assay: label from the status in PepcDB records

Sequence | protein production
METEYDQVLRSVAQVNIADQIGESDDVERDGNGVKVSCFTEVFDDVTIQFQIIRLAKQIYVWVGCNSAKFGSLYAAASTRPSNTVSVTSVLGGTSDNTGSGIARRLVLKTGLNIILACNIPKNNPLLEAKAEKVLIRKLIDLGYTMSKPVRAT | failed
METKANYTIVGIFTLIVIAAAFGFVYWMAEFGRGGPTAQLVVRIPGSANGLSVGSPVRFNGIPVGTVRGLAIDRDDPAYSIAFTEVQADAPVFPSTRAVLEIQGLTGAAYIELSGGNKDGERILQKSVESGVPAELTADLSSVTNLLATADKILKRADGAIGELQGFVQDARGPLTQTVRNAEKFSDALAANSDGIKNFIASLSSLSTTVQSVSVRLDGTLTAVENLVKAVDAGKIDSILSNVDKVTKDVASASSDIQGIMETVQSTARNFEAASTEVQTVVKRADELLASVDPAKVSTVVGDVSAATADARDAVANFKRIADDVGARRADIDQAVSDFTEMGRKLNLASSRVDGILAKVDGMLGTDDANSLFAKARETLTSFKAVADNLNARIGPIADNLTRFSSSGLKDFQALIGSTRQTVDNLNNAITNIDRDPQRLIFGGETVKQYDGRTRRLEHHHHHH | failed
METKCELNNTKKVANAFGLNEEDTNLLINAVDLDIKNNMQEISSELQQSEQSKQKQLGTTLQNLAKQNRIIK | failed
METLELFKVISRWLFLLSIGYYLLTNLQWYSYKIERVFFKHHKWRWHILYFFMPILFFFLLGDYFYIYLYVAQLPGVMLWAKKLDKPLIFTGRVKRFFAIYAGFMLFSELLCTTTGGECDKVLYLFPLFFTILITYVLERVLLNRYATAAKDKLASMPNLTIIAITGSYGKTSLKNFLAQILNDNFKVHASPRSVNTFAGIVADINENLSPLSDIYIAEAGARTRGDIKEIGVLLEHHYGIVGKVGEQHMEYFRTLENVRETKFELAQSPRLKELFSYEGNTPPSGIKATSFPTETRNIKATLKGTSFEMLIEGQFYPFETEVLGEFNVTNISAAILVALRLGIPIEKIQRQVARLKPIPHRLQKMEVNLKLILDDSFNGNLEGMLEAIRLSSLYYGRKVIVTPGLVESTEEANTTLAQAINETFDIAILTGELNLKTLSAHIQKPQKVVVKEKEALEEVLKATTREGDLILFANDAPSYI | failed
METQDHTLYVLLGPTGVGKTDLSLDIAERLGSPIISADSRQIFRELPIGTAAPTPEQRAKVPHLFVGTHSVRDYYSAGMYEVEVLEALKELFRKYRGVLLTGGSMMYIDAVCRGIDDIPDPFPEVREELYARYAAEGLDGILAQLRLLDPDYYAKVDRRNYKRVIHGLEICLSTGRPFSSFHRHEAKERPFRIVKIGLYREREELCKRIDARVLEMMEQGLEEEARAVYPLRHLNALNTVGYKEMFEYFDGSIDRAEAVRRIQRNSRVYARKQMTWFRRDSTIRWFHPEADKGTVLTLVT | failed
METRAHHVLIGLFSVIVIGAALLFGLWLAKSGSEGKFNYYDIVFNEAVSGLSQGSSVQYSGIKVGDVAFLRLDPKDPRKVWARIRVVASAPIKQDTTAKLALTGITGTSIIQLSSGTPASPMLEGKDGKIPVIVATPSPLTQLLSNGEDLMGNINQLIARFSNLLSEENTARISRTLDHLDQATGALSAERENVSAVMQQLAQASRQANAALAQASELMRSANGLLNEQGKGMLENANKTMASLERTSATLDQLISENRHSLDGGIQGLAELGPAVSELRDTLAALRGISRRLEENPANYLLGREKTKEFTP | failed
METRASYILVGVFTLLAVTGALAFVLWTAGRGEGKAMAAYDVHFSGNVMGLSVASDVFFNGVKVGAVKQITLNPDDPAKVKVRIEIDATTPVREDSVASLEGRGLTGVSVVQITGGSPHAPLLVGTAGEVPVIASRASRLEELFAGMPQLVGSGNELVNRLADVLNAENRAALASTFHALDTVTARMAARADSLDRIITNMDTTTRRLANASAGLETLAGDMRDLTRGDMRDSIVAVGNTARRLDALLAAAEPGVTGFSTEGLEDMRRLLIESRHLVTTLNRMAQRMESDPRRFMFGNQLPEYEER | failed
METRTLEDWRALLEAEKTLDSGVYNKHDLLIVRGQGARVWDAEGNEYIDCVGGYGVANLGHGNPEVVEAVKRQAETLMAMPQTLPTPMRGEFYRTLTAILPPELNRVFPVNSGTEANEAALKFARAHTGRKKFVAAMRGFSGRTMGSLSVTWEPKYREPFLPLVEPVEFIPYNDVEALKRAVDEETAAVILEPVQGEGGVRPATPEFLRAAREITQEKGALLILDEIQTGMGRTGKRFAFEHFGIVPDILTLAKALGGGVPLGAAVMREEVARSMPKGGHGTTFGGNPLAMAAGVAAIRYLERTRLWERAAELGPWFMEKLRAIPSPKIREVRGMGLMVGLELKEKAAPYIARLEKEHRVLALQAGPTVIRFLPPLVIEKEDLERVVEAVRAVLA | not failed
METTSVFRADFLSELDAPAQAGTESAVSGVEGLPPGSALLVVKRGPNAGSRFLLDQAITSAGRHPDSDIFLDDVTVSRRHAEFRLENNEFNVVDVGSLNGTYVNREPVDSAVLANGDEVQIGKFRLVFLTGPKQGEDLEHHHHHH | failed
MEVIREQEFVNQYHYDARNLEWEEENGTPKTNFEVTFQLANRDEAAKVTSIVAVLQFVIVRDEFVISGVISQMAHIQGRLINEPSEFSQDEVENLAAPLLEIVKRLTYEVTEIALDRPGVTLEF | not failed
MEVIVVDDEELSLNRLGNMLAGMPGVEVCGLFYTAAEALRYINENKPDAVFLDICIPETDGLALANKIKDIDGSAKVVFVTGYDEYAVRAFELEAVDYLMKPISRDRLEKTVQRLQRTLLGTDRQSNPQMKVSCFGGFRATVCESDSGSVNWRSPKTEELFAFLIFKRNVSRDEIANTLWDGLEPGRALTNINSTMYYIRKALSPHGLEKCIAATRKEIRIDSELISCDLYEFERLLRGRPSSKDRVETLDRLAELYKGELFQGKAYEWSFAKSRSLESGFISALLETAEYYREKRGYEQAEKMYKRAFEIDPFNEDICGHIIQICLKMGRKSEALRLYLQMEKFLMEELGEKPQAKLKKLFEEQ | failed
MEVKFLDYTLRVGGEAGQGLQTIGGALAKIFSRKGYHVFTHQDYMSRIRGGHNFYQLRFSDREVMASKELVDILLALDLNTIEIHKNSVREDGFILYDSESMKKKFEGPQFIDIPFRKIALDVGKKSVMANTVATGAVLGLLDLGLDLLNDILRVTFEDKGKEIIEQNIACAEAGYNYAHSNCSRCEAFGIPEPEARKLLLIDGVQAIGMGALMSGCTFYSAYPMSPSTGILNYLASRAEEYGLVIEQAEDEIAAINMTIGASFAGARAMTGTSGGGFSLMAEGISLAGITETPLVLAEMQRPGPATGLPTRTEQGDLLFVLNAGHGEFPRVIFEPGTPEQAFYLTSKAFELAEKYQIPVFILSDQYLGESEWTFESFDLKRPVYNDYRVREKDLEGAEDYKRYGYTDTGISPLAVPGEAGKHLVVADSDEHDEEGHIIEDAETRIKMVQKRLLKKLPLIKEEIEAPLLYGDSSPEIVLVGHGSTYGVIKEIVDIFSKDKKIAMMHFSQIYPFPERDRFDYIEFLKNANLVISVENNATGQFAKLMRAETGFEFARQILKYDGRPFTIEKLKEEIDACL | failed
MEVNGEEERRSRREDEEKEDYYYSLLNSPCSVCNKFVQAILKCLGLESSSIPPSSSSSSPSLVEEEDSGTETVEETGFMARITAVLRRRPRPPPYSSGRPGQNN | not failed
MEVNNETMQKSKFGRICVFCGSSQGKKSSYQDAAVDLGNELVLRNIDLVYGGGSIGLMGLVSQAVHDGGRHVIGVIPKTLMPRELTGETVGEVRAVADMHQRKAEMARHSDAFIALPGGYGTLEELLEVITWAQLGIHDKPVGLLNVDGYYNSLLSFIDKAVEEGFISTNARQIIISAPTAKELVKKLEEYSPCHESVATKLCWEIERIDYSSED | failed
MEVTLLGTGDTTGTPTVQCDCDTCERARDPDEELRANVRERGIDPTGGVERSRFSVAVENDTTGESLLVDLSPDFRHQFLRESVPLPDAAIITHIHFDHLDGLGNAYRLFDELPVHAADETDPVTDESVAEAVRSRYDYLDTVSVHAQTPLEPFTVAGFEVTLVPVTHPPLLCYGLRIEEPQTGAVLSISGDTCYDVPDRSKSVLTGADLALVEGIVHPEACEYHPKGGTHHNEDGVPRTFGTKHMTLPGARDFAADIEADDYRIVHTAHYVPADRAFADDIGLDGEQFML | failed
MEYDYLVIAGYFALMVAISLLFKKMASNSTSDYFRGGGKMLWWMVGATAFMTQFSAWTFTGAAGKAFNDGFAVLAVFVGNMVAYVFAYFYFARRFRQMRVDTPTEGVKRRFGNTNEQFFTWVIIPLSVINAGVWLNGLGVFASAVFNADIVTTIWVTGLAVLAISLLSGAWGVVASDFIQTLVVAVISIACAAVALYVVGGPGEIVENFPGGFIMGPDMNYPLLLVCTFIFFVVKQLQSINNMQESYRFLNAKDSKNASKAALMALVMMLFGAVIWFIPPWASAILYPDAATQYSSLGAKASDAVYLVFARETMPLGTVGLLMAGLFAATMSSMDSALNRNSGIFVRSFYSNIVRKGQASDKELLRAGQIACLVNGILVIMMAQFFNSLKHLSLFDLMMQVATLLQSPILVPLFLGIIIRRTPKWAPWATVVVGMFVSWSVVKIFTPEFVGSWFGMDELTRREAGEMRTMITIAAHLVFTAGFFCLSTLFYKEETDTHKETTAEFFKDVDTECVAEEGQDIVDRMQRAKLGTLVIYMAAGLTLMVLIPNPLWGRLLFLACAASVFAVGYGLKKSAKLDTQLSKVAATTTQ | failed
MEYGAICTPFIFVVYAKSKYLCVLISNEMGKNKLEKFADMASYPHVFEYPYSAVDNVPFDMKGKWHQEFFGNDHPIVLELGCGRGEYTVGLGRMFPDKNFIAVDIKGSRMWTGATESLQAGMKNVAFLRTNIEIIERFFAAGEVSEIWLTFSDPQMKKATKRLTSTYFMERYRKFLKPDGIIHLKTDSNFMFTYTKYMIEANQLPVEFITEDLYHSDLVDDILSIKTYYEQQWLDRGLNIKYIKFRLPQEGVLQEPDVEIELDPYRSYNRSKRSGLQTSK | failed
MEYHLRTKLNGNIAMTSCFHENSFLQCDRSLYKFIWVRHGALDVEVDHVVMHLEKEEMISLTPLHHVQIRGVDGEYLTFLFNSNFYCIYGHDSEVSCNGFLFNGSSRVMRLKLSPSQSARLDSIVDIFRGECGIQDNLQEEMLRIILKRFIITCTRIAREKFDVDPGRENMFDVIRQFYVLVDSHFKEKKQVQDYADMLCRSPKTISNLFSLYGLSSPLRVIHERVDAEAKRLLLYTGKSAKEISEILGFEDLATFSRFFKKMNKESLSEYRKREKRE | not failed
MEYRITGKGVEISEAIKNYLEKRLDKIDRVIYDDDLVSFNVRIEKDGKNQYVVKFNMNLKGNIINVEERHPDIYTAIDFASDALEKQVKRLKERLKNHPHRSSALVETPLEEPGEFSPSDKVSSVKRVSLLNLDLDEAVMQMDELNHRFLVFRNVNTGEINLLYRDENGDIHLIEMAE | failed
MEYYDIIIVGAGPAGSTLARALEDSGKRVLIIDKQAFPRDKTCAGWVTPAVMASLDIDPGKYSVGRTLQPIRRFRIGMMGQSAVENDHGDIVSYGIRRCEFDDYLLDRAECEKQLATAVKSINRNNGNWVINDQWQAPLLVGAGGHFCPVARLLGDGPGKHETVVAAKEVEFEMTPEQARACEARGDTPELWFCRDLKGYAWVFRKGSYLNIGLGREDNHRLSDHLEAFVEEMKQSGRIPSDLPGRFKGHAYLLYAHANRPLVDDGVLLIGDAAGLAYTQSGEGIRPAIESALMAANVIKAAPDYSALSLQSYGERIAERFGTRATDQQPGFEVPEWLKQPIASTLMRSHWFTRKVVTEKWFLHQEVPPLEVAV | failed
MEYYFTAQKLAVGYDNRPLIENIDFSLKRGEILTLIGPNGAGKSTILKSIARQLSLVSGTIYLDKSDVVTMNGNEFAKKMAVVLTDKLKTELMTCYDVVATGRYPYTGRFGVLSDEDKKAVDEAMELVNVSQIKDKDFTKISDGQRQRVMLSRAICQQPEIIVLDEPTSYLDIKYKLEFLSILQRLKRQKNLTVIMSLHELDMAKRVSDHILCIDGRYVDRYGTPEEVFTDQYVSGLFGITAGSLEHHHHHH | not failed
